Assay results from PMC2949298.

Molecular target: 21c Fab (human)
Assay: SPR

- Kd: 92 nM
Substance: CAP210_(V1V2) (core CAP210 gp120 containing the V1V2 loop) with sCD4 (complex)
